Test results as given in US9393271B2, “GHRH agonists for islet cell transplantation and function and the treatment of diabetes” (UNIVERSITY OF MIAMI, priority 2012, dated 2016).
Non-standard residues stand in square brackets, D forms with d. No end group written: not given here. *: point of attachment. Phe(F5) = N[C@@H](Cc1c(F)c(F)c(F)c(F)c1F)C(=O)O; Desaminotyrosyl = O=C(CCc1ccc(O)cc1)*; NMeY = CN[C@@H](Cc1ccc(O)cc1)C(=O)O; Agmatine = N=C(N)NCCCCN*; NMeA = CN[C@@H](C)C(=O)O; Nle = CCCC[C@H](N)C(=O)O; Orn = NCCC[C@H](N)C(=O)O; Abu = CC[C@H](N)C(=O)O; Aoc = NCCCCCCCC(=O)O; Ava = NCCCCC(=O)O; GABA = NCCCC(=O)O

T1: GHRH receptor in human pituitary membrane homogenates (human, UniProt Q02643)
T1 sequence: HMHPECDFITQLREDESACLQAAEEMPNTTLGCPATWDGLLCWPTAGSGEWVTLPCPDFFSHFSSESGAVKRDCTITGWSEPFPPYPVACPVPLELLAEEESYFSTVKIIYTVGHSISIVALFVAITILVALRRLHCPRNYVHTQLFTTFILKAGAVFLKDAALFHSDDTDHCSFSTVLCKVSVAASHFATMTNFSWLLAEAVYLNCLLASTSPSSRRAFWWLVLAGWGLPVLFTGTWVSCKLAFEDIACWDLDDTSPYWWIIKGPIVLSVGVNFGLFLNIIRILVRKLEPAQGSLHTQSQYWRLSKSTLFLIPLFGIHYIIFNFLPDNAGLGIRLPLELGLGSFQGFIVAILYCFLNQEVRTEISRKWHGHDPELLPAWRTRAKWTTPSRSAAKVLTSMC


Each binder was assayed against T1, GHRH receptor in human pituitary … (assay: ligand competition, 125I-JV-1-42 displaced, human pituitary membranes).

Binder	IC50 [nM]	relative affinity (binding potency) vs JI-38 [JI-38 = 1]
[NMeY]ADAIFTQSYR[Orn]VL[Abu]QLSAR[Orn]LLQDI[Nle]DR[Ava]-NH2 [[N-Me-Tyr1, Gln8, Orn12, Abu15, Orn21, Nle27, Asp28, Apa30]hGHRH(1-30)NH2]	3.8	1.14
[NMeY]ADAIFTQSYR[Orn]VL[Abu]QLSAR[Orn]LLQDI[Nle]SR-NHMe (not fully specified) [[N-Me-Tyr1, Gln8, Orn12, Abu15, Orn21, Nle27]hGHRH(1-29)NH-CH3]	1.08	4.03
[Desaminotyrosyl]ADAIFTQSYH[Orn]VL[Abu]QLSAH[Orn]LLQDI[Nle]DR-NHMe (not fully specified) [[Dat1, Gln8, His11, Orn12, Abu15, His20, Orn21, Nle27, Asp28]hGHRH(1-29)NH-CH3]	2.45	1.78
[NMeY]ADAIFTNSYR[Orn]VL[Abu]QLSAR[Orn]LLQDI[Nle]DR[Aoc]-NH2 (N-terminus assumed; SMILES CCCC[C@H](NC(=O)[C@@H](NC(=O)[C@H](CC(=O)O)NC(=O)[C@H](CCC(N)=O)NC(=O)[C@H](CC(C)C)NC(=O)[C@H](CC(C)C)NC(=O)[C@H](CCCN)NC(=O)[C@H](CCCNC(=N)N)NC(=O)[C@H](C)NC(=O)[C@H](CO)NC(=O)[C@H](CC(C)C)NC(=O)[C@H](CCC(N)=O)NC(=O)[C@H](CC)NC(=O)[C@H](CC(C)C)NC(=O)[C@@H](NC(=O)[C@H](CCCN)NC(=O)[C@H](CCCNC(=N)N)NC(=O)[C@H](Cc1ccc(O)cc1)NC(=O)[C@H](CO)NC(=O)[C@H](CC(N)=O)NC(=O)[C@@H](NC(=O)[C@H](Cc1ccccc1)NC(=O)[C@@H](NC(=O)[C@H](C)NC(=O)[C@H](CC(=O)O)NC(=O)[C@H](C)NC(=O)[C@H](Cc1ccc(O)cc1)NC)[C@@H](C)CC)[C@@H](C)O)C(C)C)[C@@H](C)CC)C(=O)N[C@@H](CC(=O)O)C(=O)N[C@@H](CCCNC(=N)N)C(=O)NCCCCCCCC(N)=O) [[N-Me-Tyr1, Orn12, Abu15, Orn21, Nle27, Asp28, Amc30]hGHRH(1-30)NH2]	2.99	1.45
[Desaminotyrosyl]ADAIFTQSYR[Orn]VL[Abu]QLSAR[Orn]LLQDI[Nle]DR[Ava]-NH2 (SMILES CCCC[C@H](NC(=O)[C@@H](NC(=O)[C@H](CC(=O)O)NC(=O)[C@H](CCC(N)=O)NC(=O)[C@H](CC(C)C)NC(=O)[C@H](CC(C)C)NC(=O)[C@H](CCCN)NC(=O)[C@H](CCCNC(=N)N)NC(=O)[C@H](C)NC(=O)[C@H](CO)NC(=O)[C@H](CC(C)C)NC(=O)[C@H](CCC(N)=O)NC(=O)[C@H](CC)NC(=O)[C@H](CC(C)C)NC(=O)[C@@H](NC(=O)[C@H](CCCN)NC(=O)[C@H](CCCNC(=N)N)NC(=O)[C@H](Cc1ccc(O)cc1)NC(=O)[C@H](CO)NC(=O)[C@H](CCC(N)=O)NC(=O)[C@@H](NC(=O)[C@H](Cc1ccccc1)NC(=O)[C@@H](NC(=O)[C@H](C)NC(=O)[C@H](CC(=O)O)NC(=O)[C@H](C)NC(=O)CCc1ccc(O)cc1)[C@@H](C)CC)[C@@H](C)O)C(C)C)[C@@H](C)CC)C(=O)N[C@@H](CC(=O)O)C(=O)N[C@@H](CCCNC(=N)N)C(=O)NCCCCC(N)=O) [[Dat1, Gln8, Orn12, Abu15, Orn21, Nle27, Asp28, Apa30]hGHRH(1-30)NH2]	1.99	2.18
[NMeY][dA]DAIFTNSYR[Orn]VL[Abu]QLSAR[Orn]LLQDI[Nle]D[Agmatine] [[N-Me-Tyr1, D-Ala2, Orn12, Abu15, Orn21, Nle27, Asp28, Agm29]hGHRH(1-29)]	1.7	2.56
[NMeY][dA]DAIFTQSYR[Orn]VL[Abu]QLSAR[Orn]LLQDI[Nle]D[Agmatine] [[N-Me-Tyr1, D-Ala2, Gln8, Orn12, Abu15, Orn21, Nle27, Asp28, Agm29]hGHRH(1-29)]	0.82	5.3

Further binders by falling IC50, results first:

IC50 [nM]	relative affinity (binding potency) vs JI-38 [JI-38 = 1]	Binder
3.44	1.26	Ac-[NMeY][dA]DAIFTQSYR[Orn]VL[Abu]QLSAR[Orn]LLQDI[Nle]D[Agmatine] (SMILES CCCC[C@H](NC(=O)[C@@H](NC(=O)[C@H](CC(=O)O)NC(=O)[C@H](CCC(N)=O)NC(=O)[C@H](CC(C)C)NC(=O)[C@H](CC(C)C)NC(=O)[C@H](CCCN)NC(=O)[C@H](CCCNC(=N)N)NC(=O)[C@H](C)NC(=O)[C@H](CO)NC(=O)[C@H](CC(C)C)NC(=O)[C@H](CCC(N)=O)NC(=O)[C@H](CC)NC(=O)[C@H](CC(C)C)NC(=O)[C@@H](NC(=O)[C@H](CCCN)NC(=O)[C@H](CCCNC(=N)N)NC(=O)[C@H](Cc1ccc(O)cc1)NC(=O)[C@H](CO)NC(=O)[C@H](CCC(N)=O)NC(=O)[C@@H](NC(=O)[C@H](Cc1ccccc1)NC(=O)[C@@H](NC(=O)[C@H](C)NC(=O)[C@H](CC(=O)O)NC(=O)[C@@H](C)NC(=O)[C@H](Cc1ccc(O)cc1)N(C)C(C)=O)[C@@H](C)CC)[C@@H](C)O)C(C)C)[C@@H](C)CC)C(=O)N[C@@H](CC(=O)O)C(=O)NCCCCNC(=N)N) [[Ac-N-Me-Tyr1, D-Ala2, Gln8, Orn12, Abu15, Orn21, Nle27, Asp28, Agm29]hGHRH(1-29)]
3.05	1.43	[NMeY][dA]DAI[Phe(F5)]TNSYR[Orn]VL[Abu]QLSAR[Orn]LLQDI[Nle]D[Agmatine] [[N-Me-Tyr1, D-Ala2, Fpa5-6, Orn12, Abu15, Orn21, Nle27, Asp28, Agm29]hGHRH(1-29)]
3.02	1.44	[NMeY]ADAIFTNSYR[Orn]VL[Abu]QLSAR[Orn]LLQDI[Nle]SR[GABA]-NHMe [[N-Me-Tyr1, Orn12, Abu15, Orn21, Nle27, Gab30]hGHRH(1-30)NH-CH3]
3	1.45	[Desaminotyrosyl]ADAIFTQSYR[Orn]VL[Abu]QLSAR[Orn]LLQDI[Nle]DR-NHMe (not fully specified) [[Dat1, Gln8, Orn12, Abu15, Orn21, Nle27, Asp28]hGHRH(1-29)NH-CH3]
1.22	3.57	[NMeY]ADAIFTQSYR[Orn]VL[Abu]QLSAR[Orn]LLQDI[Nle]SRQ-{GABA-NH2} [[N-Me-Tyr1, Gln8, Orn12, Abu15, Orn21, Nle27, Gln-Gab30]hGHRH(1-30)NH2]
1.18	3.67	[NMeY][Abu]DAIFTNSYR[Orn]VL[Abu]QLSAR[Orn]LLQDI[Nle]SR[GABA]-NH2 (N-terminus assumed; SMILES CCCC[C@H](NC(=O)[C@@H](NC(=O)[C@H](CC(=O)O)NC(=O)[C@H](CCC(N)=O)NC(=O)[C@H](CC(C)C)NC(=O)[C@H](CC(C)C)NC(=O)[C@H](CCCN)NC(=O)[C@H](CCCNC(=N)N)NC(=O)[C@H](C)NC(=O)[C@H](CO)NC(=O)[C@H](CC(C)C)NC(=O)[C@H](CCC(N)=O)NC(=O)[C@H](CC)NC(=O)[C@H](CC(C)C)NC(=O)[C@@H](NC(=O)[C@H](CCCN)NC(=O)[C@H](CCCNC(=N)N)NC(=O)[C@H](Cc1ccc(O)cc1)NC(=O)[C@H](CO)NC(=O)[C@H](CC(N)=O)NC(=O)[C@@H](NC(=O)[C@H](Cc1ccccc1)NC(=O)[C@@H](NC(=O)[C@H](C)NC(=O)[C@H](CC(=O)O)NC(=O)[C@H](CC)NC(=O)[C@H](Cc1ccc(O)cc1)NC)[C@@H](C)CC)[C@@H](C)O)C(C)C)[C@@H](C)CC)C(=O)N[C@@H](CO)C(=O)N[C@@H](CCCNC(=N)N)C(=O)NCCCC(N)=O) [[N-Me-Tyr1, Abu2, Orn12, Abu15, Orn21, Nle27, Gab30]hGHRH(1-30)NH2]
0.87	5	[NMeY][dA]DAI[Phe(F5)]TNSYR[Orn]VL[Abu]QLSAR[Orn]LLQDI[Nle]DR-NHMe [[N-Me-Tyr1, D-Ala2, Fpa5-6, Orn12, Abu15, Orn21, Nle27, Asp28]hGHRH(1-29)NH-CH3]
0.86	5.06	[Desaminotyrosyl][dA]DAIFT[NMeA]SYR[Orn]VL[Abu]QLSAR[Orn]LLQDI[Nle]D[Agmatine] (SMILES CCCC[C@H](NC(=O)[C@@H](NC(=O)[C@H](CC(=O)O)NC(=O)[C@H](CCC(N)=O)NC(=O)[C@H](CC(C)C)NC(=O)[C@H](CC(C)C)NC(=O)[C@H](CCCN)NC(=O)[C@H](CCCNC(=N)N)NC(=O)[C@H](C)NC(=O)[C@H](CO)NC(=O)[C@H](CC(C)C)NC(=O)[C@H](CCC(N)=O)NC(=O)[C@H](CC)NC(=O)[C@H](CC(C)C)NC(=O)[C@@H](NC(=O)[C@H](CCCN)NC(=O)[C@H](CCCNC(=N)N)NC(=O)[C@H](Cc1ccc(O)cc1)NC(=O)[C@H](CO)NC(=O)[C@H](C)N(C)C(=O)[C@@H](NC(=O)[C@H](Cc1ccccc1)NC(=O)[C@@H](NC(=O)[C@H](C)NC(=O)[C@H](CC(=O)O)NC(=O)[C@@H](C)NC(=O)CCc1ccc(O)cc1)[C@@H](C)CC)[C@@H](C)O)C(C)C)[C@@H](C)CC)C(=O)N[C@@H](CC(=O)O)C(=O)NCCCCNC(=N)N) [[Dat1, D-Ala2, N-Me-Ala8, Orn12, Abu15, Orn21, Nle27, Asp28, Agm29]hGHRH(1-29)]
0.3	14.5	[NMeY]ADAIFTQSYR[Orn]VL[Abu]QLSAR[Orn]LLQDI[Nle]DR-NHMe (not fully specified) [[N-Me-Tyr1, Gln8, Orn12, Abu15, Orn21, Nle27, Asp28]hGHRH(1-29)NH-CH3]
